The data set concerns the molecule itself. In words: cryo-EM structure.

We go through one protein from paper doi:10.1101/2020.03.30.016154 (bioRxiv, 2020).

B1: full-length mouse serotonin (3A) receptor (5-HT3AR) (receptor, UniProt P23979-2 24-483, looked up)
chain: SRRRATQARDTTQPALLRLSDHLLANYKKGVRPVRDWRKPTTVSIDVIMYAILNVDEKNQVLTTYIWYRQYWTDEFLQWTPEDFDNVTKLSIPTDSIWVPDILINEFVDVGKSPNIPYVYVHHRGEVQNYKPLQLVTACSLDIYNFPFDVQNCSLTFTSWLHTIQDINITLWRSPEEVRSDKSIFINQGEWELLEVFPQFKEFSIDISNSYAEMKFYVIIRRRPLFYAVSLLLPSIFLMVVDIVGFCLPPDSGERVSFKITLLLGYSVFLIIVSDTLPATAIGTPLIGVYFVVCMALLVISLAETIFIVRLVHKQDLQRPVPDWLRHLVLDRIAWILCLGEQPMAHRPPATFQANKTDDCSAMGNHCSHVGGPQDLEKTPRGRGSPLPPPREASLAVRGLLQELSSIRHFLEKRDEMREVARDWLRVGYVLDRLLFRIYLLAVLAYSITLVTLWSIWHYS
B1: the stoichiometry N (as a rule, the number of molecules, sites or subunits per partner or assembly) was 5.
